Experiment [1] addresses T1, TcdB from C. difficile ribotype 087 (Clostridium difficile ribotype 087 …, UniProt P18177 2-2366).
T1 construct: also called 087 TcdB; 10463 (087)
Nature of the experiment: sandwich ELISA (figure legend).

The target in experiment [2] is T2, TcdB from C. difficile ribotype 027 (Clostridium difficile ribotype 027 …, UniProt P18177 2-2366).
T2 construct: also called 027 TcdB; R20291 (027)
Put plainly: ELISA, TcdB coated, quadrahead detected with rabbit polyclonal anti-ICVD.

In experiment [3] the target is T1, TcdB from C. difficile ribotype 087. Nature of the experiment: sandwich ELISA: TcdB coated, quadrahead, then TcdA, rabbit anti-TcdA pAb.
Experiment [4] has as its target T2, TcdB from C. difficile ribotype 027. Described as above.

The results in this text go back to US20180100008A1 (VHSQUARED, published 2018).

B1: ID1C (bispecific antibody)
chain: DVQLQESGGGLVQAGGSLRLSCAASGATSDVYAIGWFRQVPGKEREFVATINRSGSDSYYADSVKGRFTISRDNAKNTVYLQMNSLKPEETAVYYCAASRSDCIGYGCRRVSQDYWGQGTQVTVSSGGGGSGGGGSGGGGSGGGGSDVQLQESGGGLVQAGGSLRLSCVISGMDFSHKPAGWFRQAPGKEREFVASITTRASTHYADSVKGRFTISRDNAKNTVYLEMNSLKPEDTAVYYCNSEYYWGQGTQVTVSSGGGGSGGGGSGGGGSGGGGSDVQLQESGGGLVQAGDSLRLSCAASGATLSSYTIGWFRQAPEKEREFVAGSSRDGRTNYYANSVKGRFTISRDNAKNTVYLQMNSLKPEDTAVYYCAAHTTSGVPVRERSYAYWGQGTQVTVSSGGGGSGGGGSGGGGSGGGGSDVQLQESGGGLVQAGGSLRLSCAASGATFSSYYIGWFRQAPGKEREFVAAINGSGGNRISADSVKGRFTISRDNAKNTVYLQLNSLKPEDTAVYYCAASLTYYGRSARYDYWGQGTQVTVSS
Consider B1, for which the binding result in experiment [1] and in experiment [2] was “binds” in each case.

B2: ID3C (bispecific antibody)
chain: DVQLQESGGGLVQAGDSLRLSCAASGATLSSYTIGWFRQAPEKEREFVAGSSRDGRTNYYANSVKGRFTISRDNAKNTVYLQMNSLKPEDTAVYYCAAHTTSGVPVRERSYAYWGQGTQVTVSSGGGGSGGGGSGGGGSGGGGSDVQLQESGGGLVQAGGSLRLSCAASGATSDVYAIGWFRQVPGKEREFVATINRSGSDSYYADSVKGRFTISRDNAKNTVYLQMNSLKPEETAVYYCAASRSDCIGYGCRRVSQDYWGQGTQVTVSSGGGGSGGGGSGGGGSGGGGSDVQLQESGGGLVQAGGSLRLSCVISGMDFSHKPAGWFRQAPGKEREFVASITTRASTHYADSVKGRFTISRDNAKNTVYLEMNSLKPEDTAVYYCNSEYYWGQGTQVTVSSGGGGSGGGGSGGGGSGGGGSDVQLQESGGGLVQAGGSLRLSCAASGATFSSYYIGWFRQAPGKEREFVAAINGSGGNRISADSVKGRFTISRDNAKNTVYLQLNSLKPEDTAVYYCAASLTYYGRSARYDYWGQGTQVTVSS
As to B2, the binding result in experiment [3] and in experiment [4] was “binds” throughout.
